# Experimental data from patent publication US20140120095A1 (Boehringer Ingelheim, published 2014).
# B1: recombinant mouse VEGF164 (ligand, UniProt Q00731-2 27-190, looked up)
# chain: APTTEGEQKSHEVIKFMDVYQRSYCRPIETLVDIFQEYPDEIEYIFKPSCVPLMRCAGCCNDEALECVPTSESNITMQIMRIKPHQSQHIGEMSFLQHSRCECRPKKDRTKPENHCEPCSERRKHLFVQDPQTCKCSCKNTDSRCKARQLELNERTCRCDKPRR
# modifications: biotinylated as the labelled ligand of the mVEGF164/mVEGFR2 AlphaScreen
# notes: also called mVEGF164; rmVEGF164
# B2: VEGFBII022 (VHH, not shown: small tags and cut ends)
# chain: EVQLVESGGGLVQTGDSLRLSCEVSGRTFSSYSMGWFRQAQGKEREFVVAISKGGYKYDSVSLEGRFTISKDNAKNTVYLQINSLKPEDTAVYYCASSRAYGSSRLRLADTYEYWGQGTQVTVSSGGGGSGGGSEVQLVESGGGLVQPGGSLRLSCVASGIRFMSMAWYRQAPGKHRELVARISSGGTTAYVDSVKGRFTISRDNSKNTVYLQMNSLKAEDTAVYYCNTFSSRPNPWGAGTQVTVSS
# notes: Bivalent (heterodimeric) anti-VEGF VHH; also called VEGFBII23B04-9GS-5B05
# B3: DLLBII101F01 (VHH)
# VHH: EVQLVESGGGLVQAGGSLRLSCAASGRTFSNYAMGWFRQAPGKEREFVAAISWSGGDTYYADSVKGRFTISRDNAKNTVCLQMNSLKPEDTAVYYCAASFQSGAAPGANFYDYWGQGTQVTVSS
# B4: recombinant human VEGF109 (ligand, UniProt P15692 207-315, looked up)
# chain: APMAEGGGQNHHEVVKFMDVYQRSYCHPIETLVDIFQEYPDEIEYIFKPSCVPLMRCGGCCNDEGLECVPTEESNITMQIMRIKPHQGQHIGEMSFLQHNKCECRPKKD
# notes: residue numbers count on GenBank AAM03108.1; also called rhVEGF109
# B5: DLLBII018 (VHH)
# VHH: EVQLVESGGGLVQPGGSLRLSCAASGRTFSSYAMAWYRQAPGKEREYVAAIRWSGGTAYYADSVKGRFTISRDNAKNTVYLQMNSLRPEDTAVYYCANRAPDTRLAPYEYDHWGQGTLVTVSS
# What was measured:
# mouse VEGFR2-huFc = molecular target: T1, mouse VEGFR2-huFc (mouse, UniProt P35918 20-762, limits assumed); test: AlphaScreen, unlabelled mVEGF164 against biotinylated mVEGF164 on mVEGFR2-hFc
# T1 construct: also called mVEGFR2-hFc; mVEGFR2-Fc
# T1 sequence (P35918 20-762 limits assumed): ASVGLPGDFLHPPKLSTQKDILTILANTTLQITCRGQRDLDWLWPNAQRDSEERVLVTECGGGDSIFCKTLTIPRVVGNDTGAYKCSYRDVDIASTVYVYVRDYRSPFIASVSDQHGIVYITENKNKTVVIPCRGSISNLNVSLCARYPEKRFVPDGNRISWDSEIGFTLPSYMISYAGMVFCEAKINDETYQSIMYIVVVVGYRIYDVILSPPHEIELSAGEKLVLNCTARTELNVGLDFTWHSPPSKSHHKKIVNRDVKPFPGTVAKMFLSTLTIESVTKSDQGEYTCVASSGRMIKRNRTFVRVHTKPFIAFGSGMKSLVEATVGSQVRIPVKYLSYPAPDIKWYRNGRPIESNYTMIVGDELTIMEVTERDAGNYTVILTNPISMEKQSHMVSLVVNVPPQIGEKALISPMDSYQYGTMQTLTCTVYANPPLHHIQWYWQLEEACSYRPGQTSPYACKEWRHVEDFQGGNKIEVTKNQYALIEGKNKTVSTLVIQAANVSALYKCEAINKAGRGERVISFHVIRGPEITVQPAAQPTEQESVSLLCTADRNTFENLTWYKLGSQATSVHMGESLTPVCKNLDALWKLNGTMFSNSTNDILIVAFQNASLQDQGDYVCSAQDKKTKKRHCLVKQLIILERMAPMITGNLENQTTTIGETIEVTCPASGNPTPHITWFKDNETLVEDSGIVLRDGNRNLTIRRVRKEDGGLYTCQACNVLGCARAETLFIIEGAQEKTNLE
# Experimental: (§1) Finally, streptavidin donor beads (20 μg/ml) are added and after 1 hour of incubation fluorescence is measured on the Envision microplate reader.
# [1] = molecular target: T2, VEGF (used to stimulate HUVEC cells) (UniProt P15692-4 27-191, limits assumed); test: cell-based or functional assay
# T2 sequence (P15692 other isoform, or with tags, fused parts or gaps limits assumed): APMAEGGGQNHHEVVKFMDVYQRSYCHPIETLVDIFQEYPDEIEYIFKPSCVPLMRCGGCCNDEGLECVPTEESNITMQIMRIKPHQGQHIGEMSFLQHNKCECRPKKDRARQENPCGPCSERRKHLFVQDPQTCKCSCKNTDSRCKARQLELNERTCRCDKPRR
# [2] = molecular target: T2, VEGF (used to stimulate HUVEC cells); test: cell-based or functional assay; remark: listed apart in the source
# [3] = molecular target: T3, recombinant human VEGF165 (human, UniProt P15692-4 27-191, biotinylated in the competition assays); test: binding ELISA, coated rhVEGF165
# T3 construct: Bought protein; also called hVEGF165; rhVEGF165
# Target sequence in this assay (P15692 other isoform, or with tags, fused parts or gaps): as the sequence (P15692 other isoform, or with tags, fused parts or gaps limits assumed) above
# [4] = molecular target: B1; test: binding ELISA, coated rmVEGF164
# Experimental: Cross-reactivity to mouse VEGF164 is determined using a binding ELISA. […] Wells are blocked with a casein solution (1% in PBS). […] A mouse VEGF164 reactive mAb is included as positive control.
# [5] = molecular target: T4, recombinant human VEGF121 (human, UniProt P15692-9 27-147); test: binding ELISA, coated rhVEGF121
# T4 construct: also called rhVEGF121
# T4 sequence (looked up): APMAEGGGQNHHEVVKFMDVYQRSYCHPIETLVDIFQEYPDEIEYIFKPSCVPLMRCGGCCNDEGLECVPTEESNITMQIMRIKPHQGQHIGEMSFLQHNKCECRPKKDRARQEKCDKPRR
# Experimental: Binding to recombinant human VEGF121 is assessed via a solid phase binding ELISA. […] Wells are blocked with a casein solution (1% in PBS).
# [6] = molecular target: T3, recombinant human VEGF165; test: ELISA, hVEGF165/hVEGFR2-Fc competition; parameters: % inhibition: concentration or dose not given beside the values
# [7] = molecular target: T3, recombinant human VEGF165; test: ELISA, hVEGF165/hVEGFR1-Fc competition; parameters: % inhibition: concentration or dose not given beside the values
# Target sequence in this assay (P15692 other isoform, or with tags, fused parts or gaps): as the sequence (P15692 other isoform, or with tags, fused parts or gaps limits assumed) above
# [8] = molecular target: T3, recombinant human VEGF165; test: AlphaScreen, hVEGF165/hVEGFR1-Fc competition
# Experimental: (§2) Finally, streptavidin donor beads (20 μg/ml) are added and after 1 hour of incubation in the dark, fluorescence is measured on the Envision microplate reader.
# Target sequence in this assay (P15692 other isoform, or with tags, fused parts or gaps): as the sequence (P15692 other isoform, or with tags, fused parts or gaps limits assumed) above
# [9] = molecular target: T3, recombinant human VEGF165; test: AlphaScreen, hVEGF165/hVEGFR2-Fc competition
# Experimental: as §2
# Target sequence in this assay (P15692 other isoform, or with tags, fused parts or gaps): as the sequence (P15692 other isoform, or with tags, fused parts or gaps limits assumed) above
# [10] = molecular target: T3, recombinant human VEGF165; test: AlphaScreen, hVEGF165/hVEGFR2-Fc competition; parameters: % inhibition: concentration or dose not given beside the values
# Experimental: as §2
# [11] = molecular target: T3, recombinant human VEGF165; test: AlphaScreen, hVEGF165/hVEGFR1-Fc competition; parameters: % inhibition: concentration or dose not given beside the values
# Experimental: as §2
# Target sequence in this assay (P15692 other isoform, or with tags, fused parts or gaps): as the sequence (P15692 other isoform, or with tags, fused parts or gaps limits assumed) above
# [12] = molecular target: B1; test: AlphaScreen, mVEGF164/mVEGFR2-hFc competition
# Experimental: as §1
# [13] = molecular target: T3, recombinant human VEGF165; test: AlphaScreen, hVEGF165/hVEGFR2-Fc competition, -HSA
# [14] = molecular target: T3, recombinant human VEGF165; test: AlphaScreen, hVEGF165/hVEGFR1-Fc competition, -HSA
# [15] = molecular target: T3, recombinant human VEGF165; test: AlphaScreen, hVEGF165/hVEGFR2-Fc competition, -HSA; remark: listed apart in the source
# [16] = molecular target: T3, recombinant human VEGF165; test: AlphaScreen, hVEGF165/hVEGFR2-Fc competition, +5 uM HSA
# [17] = molecular target: T3, recombinant human VEGF165; test: SPR Biacore, immobilised hVEGF165, two state reaction model
# Target sequence in this assay (P15692 other isoform, or with tags, fused parts or gaps): as the sequence (P15692 other isoform, or with tags, fused parts or gaps limits assumed) above
# [18] = molecular target: T5, human DLL4 overexpressed on cells (human, UniProt Q9NR61 27-685); test: FMAT, labelled hNotch1-Fc on CHO-hDLL4, periplasmic extract
# T5 construct: full length human DLL4 on CHO or HEK293 cells; also called CHO-hDLL4; CHO-hDII4
# Text: (§3) All calculations are based on the FL1_total signal which comprises the average of the fluorescence per well times the number of counts per well.
# [19] = molecular target: T6, mouse DLL4 overexpressed on cells (mouse, UniProt Q9JI71 27-686); test: FMAT, labelled hNotch1-Fc on CHO-mDLL4, periplasmic extract
# T6 construct: whole, on cells; also called CHO-mDLL4; CHO-mDII4
# T6 sequence (Q9JI71 27-686): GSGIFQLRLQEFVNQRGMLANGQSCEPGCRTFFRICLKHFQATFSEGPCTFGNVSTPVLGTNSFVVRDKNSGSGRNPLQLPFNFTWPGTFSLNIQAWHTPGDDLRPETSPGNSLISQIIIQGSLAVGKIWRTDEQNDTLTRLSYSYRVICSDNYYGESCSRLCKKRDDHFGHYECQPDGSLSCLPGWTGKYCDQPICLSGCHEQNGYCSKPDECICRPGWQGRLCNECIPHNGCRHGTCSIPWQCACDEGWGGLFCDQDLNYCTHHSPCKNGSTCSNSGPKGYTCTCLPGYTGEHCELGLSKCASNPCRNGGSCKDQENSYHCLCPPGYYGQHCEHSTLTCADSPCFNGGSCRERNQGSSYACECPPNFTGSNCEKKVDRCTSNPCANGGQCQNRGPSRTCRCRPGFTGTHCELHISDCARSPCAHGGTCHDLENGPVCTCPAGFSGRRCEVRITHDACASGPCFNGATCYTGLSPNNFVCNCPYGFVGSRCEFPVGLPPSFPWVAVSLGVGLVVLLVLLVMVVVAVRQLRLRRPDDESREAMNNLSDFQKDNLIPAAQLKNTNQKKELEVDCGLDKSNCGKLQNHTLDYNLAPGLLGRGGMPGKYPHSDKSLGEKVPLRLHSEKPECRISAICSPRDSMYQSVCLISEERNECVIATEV
# Text: as §3
# recombinant human DLL4 = molecular target: T7, recombinant human DLL4 (human, UniProt Q9NR61 25-522); test: Biacore off-rate, periplasmic extract; single VHH, not bracketed
# T7 construct: also called rhDLL4; hDLL4
# human VEGFR2-Fc chimera = molecular target: T8, human VEGFR2-Fc chimera (human, UniProt P35968 20-764); test: ELISA, coated VEGF109
# T8 construct: also called hVEGFR2-Fc; VEGFR2-huFc; not shown: human Fc part of the bought chimera; not described
# T8 sequence (P35968 20-764, change not shown): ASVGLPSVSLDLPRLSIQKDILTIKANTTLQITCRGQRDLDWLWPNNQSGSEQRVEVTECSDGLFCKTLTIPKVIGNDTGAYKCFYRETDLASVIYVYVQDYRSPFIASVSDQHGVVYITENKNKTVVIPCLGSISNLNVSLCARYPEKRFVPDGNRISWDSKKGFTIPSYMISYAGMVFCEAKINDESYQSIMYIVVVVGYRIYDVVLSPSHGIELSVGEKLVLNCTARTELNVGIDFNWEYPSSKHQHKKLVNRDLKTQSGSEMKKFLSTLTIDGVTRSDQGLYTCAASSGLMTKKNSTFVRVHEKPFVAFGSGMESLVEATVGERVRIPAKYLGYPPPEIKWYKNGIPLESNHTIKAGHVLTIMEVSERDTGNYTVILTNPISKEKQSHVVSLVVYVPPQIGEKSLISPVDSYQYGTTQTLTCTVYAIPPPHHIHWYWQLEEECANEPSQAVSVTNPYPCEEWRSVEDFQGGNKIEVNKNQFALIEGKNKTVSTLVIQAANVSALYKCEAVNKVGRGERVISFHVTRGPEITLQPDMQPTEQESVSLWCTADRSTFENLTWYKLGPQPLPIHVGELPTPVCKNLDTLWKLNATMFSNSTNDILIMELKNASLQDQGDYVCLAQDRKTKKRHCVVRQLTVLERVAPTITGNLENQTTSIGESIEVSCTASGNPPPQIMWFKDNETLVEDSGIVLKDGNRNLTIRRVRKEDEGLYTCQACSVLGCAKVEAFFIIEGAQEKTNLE
# Experimental: Cells are harvested by centrifugation and lysed by sonication of the cell pellet. Inclusion bodies are isolated by centrifugation. […] The refolded protein is purified by ion exchange chromatography using a MonoQ5/50GL (Amersham BioSciences) column followed by gel filtration with a Superdex75 10/300 GL column (Amersheim BioSciences). […] To this end, 1 μg/mL of recombinant human VEGF109 is immobilized overnight at 4° C. in a 96-well MaxiSorp plate (Nunc, Wiesbaden, Germany). Wells are blocked with a casein solution (1%).
# [20] = molecular target: T9, human DLL4, full length, overexpressed on cells (human, UniProt Q9NR61 27-685); test: FMAT, hNotch1-Fc on CHO-hDLL4, -HSA
# T9 construct: CHO cells in FMAT, HEK293 cells in the reporter assay; also called hDLL4; CHO-hDLL4
# [21] = molecular target: T10, mouse DLL4, full length, overexpressed on CHO cells (mouse, UniProt Q9JI71 27-686); test: FMAT, hNotch1-Fc on CHO-mDLL4, -HSA
# T10 construct: whole, on cells; also called mDLL4; CHO-mDLL4
# T10 sequence (Q9JI71 27-686): as the sequence (Q9JI71 27-686) above
# [22] = molecular target: T9, human DLL4, full length, overexpressed …; test: FMAT, hNotch1-Fc on CHO-hDLL4, +25 uM HSA
# [23] = molecular target: T10, mouse DLL4, full length, overexpressed …; test: FMAT, hNotch1-Fc on CHO-mDLL4, +25 uM HSA
binder,measurement,setting,value
B1,IC50,mouse VEGFR2-huFc,0.05 nM
B2,"% inhibition, VEGF HUVEC proliferation assay",[1],100%
same,"IC50, VEGF HUVEC proliferation assay",[1],0.34 nM
same,"% inhibition, VEGF HUVEC Erk phosphorylation assay",[2],94%
same,"IC50, VEGF HUVEC Erk phosphorylation assay",[2],0.18 nM
same,EC50,[3],0.224 nM
same,EC50,[4],0.464 nM
same,EC50,[5],0.54 nM
same,% inhibition,[6],100%
same,IC50,[6],0.164 nM
same,% inhibition,[7],89%
same,IC50,[7],0.225 nM
same,% inhibition,[8],100%
same,IC50,[8],0.008 nM
same,IC50,[9],0.007 nM
same,% inhibition,[10],100%
same,IC50,[10],0.007 nM
same,% inhibition,[11],98%
same,IC50,[11],0.009 nM
same,IC50,[12],108 nM
same,% inh,[13],100%
same,IC50,[13],0.017 nM
same,% inh,[14],87%
same,IC50,[14],0.07 nM
same,% inh,[15],100%
same,IC50,[15],0.05 nM
same,IC50,[16],0.03 nM
same,Kd,[17],0.14 nM
same,ka1,[17],1.2e+06 M⁻¹ s⁻¹
same,ka2,[17],0.014 s⁻¹
same,kd1,[17],0.0091 s⁻¹
same,kd2,[17],0.00026 s⁻¹
B3,% inh,[18],85%
same,% inh,[19],78%
same,koff,recombinant human DLL4,0.02 s⁻¹
B4,binding result,human VEGFR2-Fc chimera,binds
B5,% inh,[20],87%
same,IC50,[20],5.5 nM
same,% inh,[21],99%
same,IC50,[21],2.4 nM
same,IC50,[22],7.1 nM
same,IC50,[23],2.8 nM
